Reference: paper PMC6973309 (mAbs, 2020)

Target: BI 655089 (llama)
Experiment: flow cytometry on cells

binding result: binds
B1: human CX3CR1 (receptor, UniProt P49238 1-355, looked up)
chain: MDQFPESVTENFEYDDLAEACYIGDIVVFGTVFLSIFYSVIFAIGLVGNLLVVFALTNSKKPKSVTDIYLLNLALSDLLFVATLPFWTHYLINEKGLHNAMCKFTTAFFFIGFFGSIFFITVISIDRYLAIVLAANSMNNRTVQHGVTISLGVWAAAILVAAPQFMFTKQKENECLGDYPEVLQEIWPVLRNVETNFLGFLLPLLIMSYCYFRIIQTLFSCKNHKKAKAIKLILLVVIVFFLFWTPYNVMIFLETLKLYDFFPSCDMRKDLRLALSVTETVAFSHCCLNPLIYAFAGEKFRRYLYHLYGKCLAVLCGRSVHVDFSSSESQRSRHGSVLSSNFTYHTSDGDALLLL
